Here are results for two molecules from patent publication US20210324028A1 (Pfizer, published 2021).

The target in one assay is T1, human IL-15Rα (human, UniProt Q13261 31-205, limits assumed).
T1 construct: also called hIL-15Rα; IL-15 receptor alpha
Briefly: SPR, steady state. A general note: SPR reads the build-up and loss of mass on a sensor chip optically.

The next assay has as its target T2, human IL-2Rβ (human, UniProt P14784 27-240, limits assumed).
T2 construct: also called hIL-2Rβ; IL-2 receptor beta
T2 sequence (looked up): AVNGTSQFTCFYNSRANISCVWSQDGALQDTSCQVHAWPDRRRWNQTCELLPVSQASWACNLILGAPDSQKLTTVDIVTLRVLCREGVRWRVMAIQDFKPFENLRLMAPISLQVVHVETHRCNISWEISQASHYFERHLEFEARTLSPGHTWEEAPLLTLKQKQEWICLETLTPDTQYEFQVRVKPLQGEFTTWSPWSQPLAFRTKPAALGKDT
Briefly: SPR, kinetic fit.

T1 sequence (Q13261 31-205 limits assumed): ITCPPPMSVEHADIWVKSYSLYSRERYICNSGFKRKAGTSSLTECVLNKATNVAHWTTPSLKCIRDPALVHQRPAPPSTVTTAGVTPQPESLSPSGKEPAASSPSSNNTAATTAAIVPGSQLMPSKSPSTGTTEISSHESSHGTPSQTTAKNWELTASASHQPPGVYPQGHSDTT

B1: hIL-15 V49R/K11W (ligand)
chain: NWVNVISDLKWIEDLIQSMHIDATLYTESDVHPSCKVTAMKCFLLELQRISLESGDASIHDTVENLIILANNSLSSNGNVTESGCKECEELEEKNIKEFLQSFVHIVQMFINTGGGGSGHHHHHHHHGGGLNDIFEAQKIEWHE
As for B1, the dissociation constant Kd with human IL-15Rα is 361 nM; in the assay with human IL-2Rβ it was 346 nM.

B2: hIL-15 V49R/N1R (ligand)
chain: RWVNVISDLKKIEDLIQSMHIDATLYTESDVHPSCKVTAMKCFLLELQRISLESGDASIHDTVENLIILANNSLSSNGNVTESGCKECEELEEKNIKEFLQSFVHIVQMFINTGGGGSGHHHHHHHHGGGLNDIFEAQKIEWHE
For the molecule B2, the Kd with human IL-15Rα was 243 nM; in the assay with human IL-2Rβ it was 479 nM.

The Kd is a measure of binding affinity in units of concentration. High values mean weaker binding, low ones tighter binding.
